Assays:
[1] = molecular target: AtWRKY22-YFP (Arabidopsis thaliana) (UniProt O04609); assay: FRET or BRET
[2] = molecular target: RRS1-R-YFP (Arabidopsis thaliana) (UniProt C4B7M5); assay: FRET or BRET
Chain of UniProt C4B7M5 (C4B7M5 whole entry): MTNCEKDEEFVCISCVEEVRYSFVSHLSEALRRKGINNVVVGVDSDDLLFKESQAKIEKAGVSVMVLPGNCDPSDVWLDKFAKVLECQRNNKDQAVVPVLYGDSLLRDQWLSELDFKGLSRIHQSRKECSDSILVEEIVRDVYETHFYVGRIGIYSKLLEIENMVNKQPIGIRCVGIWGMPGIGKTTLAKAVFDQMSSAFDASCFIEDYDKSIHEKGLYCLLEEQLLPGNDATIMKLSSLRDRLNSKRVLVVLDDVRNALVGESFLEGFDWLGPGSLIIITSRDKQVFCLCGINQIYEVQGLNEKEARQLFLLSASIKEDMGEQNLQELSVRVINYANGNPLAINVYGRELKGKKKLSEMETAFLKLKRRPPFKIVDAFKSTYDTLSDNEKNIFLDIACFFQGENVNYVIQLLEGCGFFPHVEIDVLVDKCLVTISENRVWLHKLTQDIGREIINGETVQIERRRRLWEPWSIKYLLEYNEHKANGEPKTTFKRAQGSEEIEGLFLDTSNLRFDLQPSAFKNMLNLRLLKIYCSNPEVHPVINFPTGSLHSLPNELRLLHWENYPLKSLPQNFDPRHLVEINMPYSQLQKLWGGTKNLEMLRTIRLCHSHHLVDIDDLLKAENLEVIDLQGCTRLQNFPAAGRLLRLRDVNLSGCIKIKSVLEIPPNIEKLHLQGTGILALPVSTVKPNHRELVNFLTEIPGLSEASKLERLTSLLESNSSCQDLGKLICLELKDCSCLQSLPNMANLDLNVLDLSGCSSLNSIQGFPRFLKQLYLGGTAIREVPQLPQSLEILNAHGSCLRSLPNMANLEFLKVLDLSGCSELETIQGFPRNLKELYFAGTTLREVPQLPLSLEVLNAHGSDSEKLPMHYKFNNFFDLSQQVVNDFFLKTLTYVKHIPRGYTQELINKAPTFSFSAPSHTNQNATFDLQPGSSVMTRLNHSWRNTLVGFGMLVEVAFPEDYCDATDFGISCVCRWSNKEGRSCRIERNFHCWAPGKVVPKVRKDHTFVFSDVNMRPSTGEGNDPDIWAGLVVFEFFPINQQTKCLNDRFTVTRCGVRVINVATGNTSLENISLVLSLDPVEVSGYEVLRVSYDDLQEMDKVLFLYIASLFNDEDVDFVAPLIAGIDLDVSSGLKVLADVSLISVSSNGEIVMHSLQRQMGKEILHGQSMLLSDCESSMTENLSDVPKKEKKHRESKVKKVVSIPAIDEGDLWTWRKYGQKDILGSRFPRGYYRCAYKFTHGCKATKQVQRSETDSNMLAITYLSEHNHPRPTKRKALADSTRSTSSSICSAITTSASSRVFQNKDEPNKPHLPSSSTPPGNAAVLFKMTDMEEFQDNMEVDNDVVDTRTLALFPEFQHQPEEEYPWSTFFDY

Chain of UniProt O04609 (O04609 whole entry): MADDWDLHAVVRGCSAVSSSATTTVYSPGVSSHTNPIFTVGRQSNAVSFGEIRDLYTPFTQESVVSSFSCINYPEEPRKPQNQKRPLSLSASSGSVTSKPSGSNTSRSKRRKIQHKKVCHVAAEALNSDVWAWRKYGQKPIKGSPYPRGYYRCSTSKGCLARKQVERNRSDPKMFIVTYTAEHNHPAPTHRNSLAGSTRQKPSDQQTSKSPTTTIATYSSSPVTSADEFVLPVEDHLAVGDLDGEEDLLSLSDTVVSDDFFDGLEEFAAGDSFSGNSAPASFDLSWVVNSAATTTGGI

XopJ6^C409A-CFP (natural protein) gave an FRET efficiency E [1] of 9.67%, a mean CFP donor lifetime T in the presence of the acceptor [1] of 3.36 ns and an FRET efficiency E [2] of 12.1%. It also gave a mean CFP donor lifetime T in the presence of the acceptor [2] of 3.27 ns and a Δt (decrease of donor lifetime) [2] of 452 ps.

XopJ6_(CN06)-CFP (natural protein) was tested, and the FRET efficiency E [1] was 9.49%, the mean CFP donor lifetime T in the presence of the acceptor [1] was 3.48 ns and the Δt (decrease of donor lifetime) [1] was 365 ps. For the same substance, the FRET efficiency E [2] was 15%, the mean CFP donor lifetime T in the presence of the acceptor [2] was 3.27 ns and the Δt (decrease of donor lifetime) [2] was 578 ps.

Reference: PMC10909901
